Laboratory results as given in US20020173625A1.

Target: grass pollen allergic patients' IgE antibodies
Assay: ELISA competition; sera of 20 patients preadsorbed with 10 ug/ml rPhl p 6; competitor: plate-bound rPhl p 6

% inhibition of IgE binding: 80%
B1: recombinant Phl p 6 (protein, timothy grass, UniProt P43215 23-132, looked up)
chain: GKATTEEQKLIEDVNASFRAAMATTANVPPADKYKTFEAAFTVSSKRNLADAVSKAPQLVPKLDEVYNAAYNAADHAAPEDKYEAFVLHFSEALRIIAGTPEVHAVKPGA
